Starred links: 1 amine or outer side, 2 acyl side, 3 side chain; linkers in the order of their positions; H or OH if unused. Non-standard residues stand in square brackets, D forms with d. No end group written: not given here. F2Pmab = 2-amino-4,4-difluoro-3-methyl-4-phosphobutanoic acid, in place of p-Thr, C[C@H]([C@H](N[*:1])C(=O)[*:2])C(F)(F)P(=O)(O)O; Abu(3R-Me,4-PO3H2) = C[C@@H](CP(=O)(O)O)[C@H](N)C(=O)O; pT = C[C@@H](OP(=O)(O)O)[C@H](N)C(=O)O

One assay has as its target T1, Flag-Plk2(K607R, Y626F) (UniProt Q9NYY3 1-685).
T1 construct: not shown: Flag tag
Kind of assay: pull-down of transfected HeLa lysate with immobilised MQSpTPL (FIG. 15B).

Assay [1] concerns the target T2, Flag-Plk2(L606F, K607R, 5608T, D609R, K610S, Y626F, H627Q) (UniProt Q9NYY3 1-685).
T2 construct: 5608T is read as S608T; not shown: Flag tag
Described as above.

In assay [2] the target is T3, Flag-Plk3(K52R) (UniProt Q9H4B4 40-646, K52R).
T3 construct: A gift construct; K52 may be counted on another entry than the printed human one; not shown: Flag tag
T3 sequence (Q9H4B4 40-646 K91R): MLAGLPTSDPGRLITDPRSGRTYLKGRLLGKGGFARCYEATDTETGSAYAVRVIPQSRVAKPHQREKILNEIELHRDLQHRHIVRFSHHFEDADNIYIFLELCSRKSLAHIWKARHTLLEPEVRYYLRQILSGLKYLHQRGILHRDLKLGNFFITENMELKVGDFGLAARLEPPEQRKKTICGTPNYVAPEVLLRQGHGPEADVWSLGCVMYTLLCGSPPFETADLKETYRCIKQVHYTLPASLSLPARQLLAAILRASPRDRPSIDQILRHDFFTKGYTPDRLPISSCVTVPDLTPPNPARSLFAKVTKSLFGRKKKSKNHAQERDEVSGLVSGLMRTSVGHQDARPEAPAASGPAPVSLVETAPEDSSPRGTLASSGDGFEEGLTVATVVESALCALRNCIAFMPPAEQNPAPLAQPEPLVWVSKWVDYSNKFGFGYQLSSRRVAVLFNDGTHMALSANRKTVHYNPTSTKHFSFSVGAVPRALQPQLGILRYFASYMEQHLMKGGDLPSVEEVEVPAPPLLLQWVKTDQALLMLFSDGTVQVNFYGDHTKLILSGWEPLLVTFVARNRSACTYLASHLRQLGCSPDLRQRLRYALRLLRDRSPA
Kind of assay: assay not given; pull-downs of Examples 3 and 6.

Assay [3] deals with T4, HA-EGFP-Plk1 (UniProt P53350 1-603).
T4 construct: also called full-length Plk1 (ELISA); not shown: HA tag and EGFP
T4 sequence (P53350 whole entry): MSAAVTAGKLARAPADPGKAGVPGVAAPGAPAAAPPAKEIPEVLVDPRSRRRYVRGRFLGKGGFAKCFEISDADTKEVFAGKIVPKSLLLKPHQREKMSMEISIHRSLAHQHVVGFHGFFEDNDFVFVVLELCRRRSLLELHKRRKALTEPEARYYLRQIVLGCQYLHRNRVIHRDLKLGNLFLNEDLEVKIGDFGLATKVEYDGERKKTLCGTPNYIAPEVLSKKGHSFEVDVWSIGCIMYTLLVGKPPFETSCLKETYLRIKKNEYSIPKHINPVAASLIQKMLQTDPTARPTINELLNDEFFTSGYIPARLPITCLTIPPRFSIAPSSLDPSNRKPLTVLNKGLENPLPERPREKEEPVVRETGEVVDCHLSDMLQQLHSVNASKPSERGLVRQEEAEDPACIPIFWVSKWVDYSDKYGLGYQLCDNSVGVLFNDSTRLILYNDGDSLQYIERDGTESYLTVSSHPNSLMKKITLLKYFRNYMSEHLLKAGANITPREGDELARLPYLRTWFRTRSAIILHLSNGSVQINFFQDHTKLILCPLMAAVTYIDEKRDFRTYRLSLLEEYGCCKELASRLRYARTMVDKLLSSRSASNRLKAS
Kind of assay: ELISA competition (FIG. 16A). Background: An ELISA detects its analyte on a solid surface through an enzyme-linked reagent.

For assay [4], the target named is T4, HA-EGFP-Plk1. Description: ELISA competition on immobilised biotinylated p-T78 9-mer (FIG. 16A).
For assay [5], the target named is T5, Plk1 (endogenous, in mitotic HeLa cell lysates) (UniProt P53350 2-603).
T5 construct: Endogenous full-length protein in total lysate of nocodazole-arrested HeLa cells; also called polo-like kinase 1
T5 sequence (P53350 2-603 limits assumed): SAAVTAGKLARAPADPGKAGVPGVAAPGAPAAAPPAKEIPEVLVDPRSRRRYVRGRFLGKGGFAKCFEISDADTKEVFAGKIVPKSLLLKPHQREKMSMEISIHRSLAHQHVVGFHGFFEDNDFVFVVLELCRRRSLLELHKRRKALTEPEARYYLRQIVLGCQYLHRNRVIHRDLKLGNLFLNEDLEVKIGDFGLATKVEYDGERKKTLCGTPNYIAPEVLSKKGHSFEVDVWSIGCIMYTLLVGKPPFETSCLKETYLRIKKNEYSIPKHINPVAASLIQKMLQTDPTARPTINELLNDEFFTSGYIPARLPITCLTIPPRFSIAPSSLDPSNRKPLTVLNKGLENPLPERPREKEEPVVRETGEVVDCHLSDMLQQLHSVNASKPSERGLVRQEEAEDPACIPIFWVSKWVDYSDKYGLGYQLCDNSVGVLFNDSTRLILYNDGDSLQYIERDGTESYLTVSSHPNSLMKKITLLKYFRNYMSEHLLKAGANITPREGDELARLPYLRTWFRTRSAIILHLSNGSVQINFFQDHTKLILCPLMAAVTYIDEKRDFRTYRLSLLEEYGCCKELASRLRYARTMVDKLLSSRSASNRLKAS
Kind of assay: pull-down from mitotic HeLa lysate with bead-immobilised peptide (FIG. 13A).

In assay [6] the target is T3, Flag-Plk3(K52R). Description: pull-down from mixed HeLa lysates, anti-Flag blot (FIG. 4B).
For assay [7], the target named is T5, Plk1 (endogenous, in mitotic HeLa cell …). Kind of assay: pull-down from mitotic HeLa lysate with bead-immobilised peptide (FIG. 4A).

T2 sequence (Q9NYY3 whole entry L606F/K607R/S608T/D609R/K610S/Y626F/H627Q): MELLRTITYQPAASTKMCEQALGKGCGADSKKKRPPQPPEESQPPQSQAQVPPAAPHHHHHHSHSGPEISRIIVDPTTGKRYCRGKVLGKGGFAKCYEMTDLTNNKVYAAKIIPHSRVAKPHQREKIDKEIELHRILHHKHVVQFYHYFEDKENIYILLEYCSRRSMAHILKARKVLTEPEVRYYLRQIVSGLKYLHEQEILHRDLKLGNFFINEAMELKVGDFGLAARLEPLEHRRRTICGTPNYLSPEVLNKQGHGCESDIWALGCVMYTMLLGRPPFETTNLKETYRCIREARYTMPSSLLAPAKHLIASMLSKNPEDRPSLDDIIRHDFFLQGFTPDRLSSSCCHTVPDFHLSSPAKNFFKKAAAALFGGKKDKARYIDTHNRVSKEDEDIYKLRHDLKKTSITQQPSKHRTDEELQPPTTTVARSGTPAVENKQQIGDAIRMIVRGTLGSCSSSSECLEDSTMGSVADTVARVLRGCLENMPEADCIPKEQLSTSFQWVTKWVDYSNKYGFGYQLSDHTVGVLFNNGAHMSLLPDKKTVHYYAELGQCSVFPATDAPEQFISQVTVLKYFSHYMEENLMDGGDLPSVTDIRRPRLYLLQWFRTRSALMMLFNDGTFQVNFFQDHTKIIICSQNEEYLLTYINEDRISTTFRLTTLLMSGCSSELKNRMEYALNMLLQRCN
T1 sequence (Q9NYY3 whole entry K607R/Y626F): as the sequence (Q9NYY3 whole entry L606F/K607R/S608T/D609R/K610S/Y626F/H627Q) above, with F606L, T608S, R609D, S610K, Q627H counted along it

As for MQS[pT]PL (also: in pull-downs N-terminal Cys-(CH2)6 linker cross-linked to beads, also called synthetic optimal peptide) [MQSpTPL], the binding result is given as “no binding” with Flag-Plk2(K607R, Y626F) and “no binding” in assay [1].

B1: PLHSpT (peptide)
peptide: PLHS[pT]
modifications: also: Ac and C-terminal amide in soluble form, N-terminal Cys-(CH2)6 linker in pull-down form
notes: Derived from the Thr78 region of PBIP1; also called Ac-PLHSpT-NH2; C-(CH2)6-PLHSpT
As for B1, the binding result with Flag-Plk3(K52R) [2] is given as “no binding”.
Consider PLHS[F2Pmab]A (also: in pull-downs N-terminal Cys-(CH2)6 linker cross-linked to beads, also called C-(CH2)6-PLHS-F2Pmab-A) [PLHS-F2Pmab-A], for which the binding result with HA-EGFP-Plk1 [3] is on record as “binds”.

B2: PLHA-F2Pmab-A (peptide)
peptide: PLHA[F2Pmab]A
modifications: also: in pull-downs N-terminal Cys-(CH2)6 linker cross-linked to beads
notes: also called F2Pmab(S77A); C-(CH2)6-PLHA-F2Pmab-A
As to B2, the figures for the binding result (in the assay with HA-EGFP-Plk1 [4]; in assay [5]) were “no binding (tested: 1000-fold higher molar concentrations)” and “no binding”, respectively.

B3: PLHS-Pmab (peptide)
peptide: PLHS[Abu(3R-Me,4-PO3H2)]
modifications: also: N-acetylated in soluble form, N-terminal Cys-(CH2)6 linker in pull-down form
notes: also called C-(CH2)6-PLHS-Pmab
In the case of B3, the binding result with Flag-Plk3(K52R) [6] is “no binding”.

B4: PLHA-Pmab (peptide)
peptide: PLHA[Abu(3R-Me,4-PO3H2)]
modifications: also: N-acetylated in soluble form
notes: also called Pmab(S77A); C-(CH2)6-PLHA-Pmab
Turning to B4, the binding result in assay [7] is listed as “no binding”.

The record behind these values is patent publication US20120065146A1 (published 2012).
